The record followed here is paper PMC4721541 (Bioscience Reports, 2015).

To fix the notation:
B1: Erv1 (essential for respiration and viability 1), wild type (enzyme, S. cerevisiae, UniProt P27882 1-189, looked up)
chain: MKAIDKMTDNPPQEGLSGRKIIYDEDGKPCRSCNTLLDFQYVTGKISNGLKNLSSNGKLAGTGALTGEASELMPGSRTYRKVDPPDVEQLGRSSWTLLHSVAASYPAQPTDQQKGEMKQFLNIFSHIYPCNWCAKDFEKYIRENAPQVESREELGRWMCEAHNKVNKKLRKPKFDCNFWEKRWKDGWDE
notes: Erv1, Saccharomyces cerevisiae, FAD-dependent thiol oxidase, 189 amino acids, full length; Construct in pET24a(+) (NdeI/XhoI); also called WT Erv1; WT; source: E. coli Rosetta-gami 2, purified (Ni2+ resin, gel filtration)
B2: Erv1 W95F (enzyme, S. cerevisiae, UniProt P27882 1-189, looked up)
chain: MKAIDKMTDNPPQEGLSGRKIIYDEDGKPCRSCNTLLDFQYVTGKISNGLKNLSSNGKLAGTGALTGEASELMPGSRTYRKVDPPDVEQLGRSSFTLLHSVAASYPAQPTDQQKGEMKQFLNIFSHIYPCNWCAKDFEKYIRENAPQVESREELGRWMCEAHNKVNKKLRKPKFDCNFWEKRWKDGWDE
notes: Erv1, Saccharomyces cerevisiae, 189 amino acids, full length, with W95F; Made by site-directed mutagenesis on the construct of m1; source: E. coli Rosetta-gami 2, purified (Ni2+ resin, gel filtration)
B3: Erv1 W179F (enzyme, S. cerevisiae, UniProt P27882 1-189, looked up)
chain: MKAIDKMTDNPPQEGLSGRKIIYDEDGKPCRSCNTLLDFQYVTGKISNGLKNLSSNGKLAGTGALTGEASELMPGSRTYRKVDPPDVEQLGRSSWTLLHSVAASYPAQPTDQQKGEMKQFLNIFSHIYPCNWCAKDFEKYIRENAPQVESREELGRWMCEAHNKVNKKLRKPKFDCNFFEKRWKDGWDE
notes: Erv1, Saccharomyces cerevisiae, 189 amino acids, full length, with W179F; Made by site-directed mutagenesis on the construct of m1; source: E. coli Rosetta-gami 2, purified (Ni2+ resin, gel filtration)
B4: Erv1 W132F (enzyme, S. cerevisiae, UniProt P27882 1-189, looked up)
chain: MKAIDKMTDNPPQEGLSGRKIIYDEDGKPCRSCNTLLDFQYVTGKISNGLKNLSSNGKLAGTGALTGEASELMPGSRTYRKVDPPDVEQLGRSSWTLLHSVAASYPAQPTDQQKGEMKQFLNIFSHIYPCNFCAKDFEKYIRENAPQVESREELGRWMCEAHNKVNKKLRKPKFDCNFWEKRWKDGWDE
notes: Erv1, Saccharomyces cerevisiae, 189 amino acids, full length, with W132F; Made by site-directed mutagenesis on the construct of m1; source: E. coli Rosetta-gami 2, purified (Ni2+ resin, gel filtration)
B5: Erv1 W157F (enzyme, S. cerevisiae, UniProt P27882 1-189, looked up)
chain: MKAIDKMTDNPPQEGLSGRKIIYDEDGKPCRSCNTLLDFQYVTGKISNGLKNLSSNGKLAGTGALTGEASELMPGSRTYRKVDPPDVEQLGRSSWTLLHSVAASYPAQPTDQQKGEMKQFLNIFSHIYPCNWCAKDFEKYIRENAPQVESREELGRFMCEAHNKVNKKLRKPKFDCNFWEKRWKDGWDE
notes: Erv1, Saccharomyces cerevisiae, 189 amino acids, full length, with W157F; Made by site-directed mutagenesis on the construct of m1; source: E. coli Rosetta-gami 2, purified (Ni2+ resin, gel filtration)
B6: Erv1 W187F (enzyme, S. cerevisiae, UniProt P27882 1-189, looked up)
chain: MKAIDKMTDNPPQEGLSGRKIIYDEDGKPCRSCNTLLDFQYVTGKISNGLKNLSSNGKLAGTGALTGEASELMPGSRTYRKVDPPDVEQLGRSSWTLLHSVAASYPAQPTDQQKGEMKQFLNIFSHIYPCNWCAKDFEKYIRENAPQVESREELGRWMCEAHNKVNKKLRKPKFDCNFWEKRWKDGFDE
notes: Erv1, Saccharomyces cerevisiae, 189 amino acids, full length, with W187F; Made by site-directed mutagenesis on the construct of m1; source: E. coli Rosetta-gami 2, purified (Ni2+ resin, gel filtration)
B7: Erv1 W183F (enzyme, S. cerevisiae, UniProt P27882 1-189, looked up)
chain: MKAIDKMTDNPPQEGLSGRKIIYDEDGKPCRSCNTLLDFQYVTGKISNGLKNLSSNGKLAGTGALTGEASELMPGSRTYRKVDPPDVEQLGRSSWTLLHSVAASYPAQPTDQQKGEMKQFLNIFSHIYPCNWCAKDFEKYIRENAPQVESREELGRWMCEAHNKVNKKLRKPKFDCNFWEKRFKDGWDE
notes: Erv1, Saccharomyces cerevisiae, 189 amino acids, full length, with W183F; Made by site-directed mutagenesis on the construct of m1; FAD content 71% as purified; source: E. coli Rosetta-gami 2, purified (Ni2+ resin, gel filtration)

One series deals with the molecule itself. Briefly: SEC; gel filtration on Superdex 200 10/30, 4°C, BAE (150 mM NaCl, 50 mM Tris/HCl, 1 mM EDTA, pH 7.4); oligomer state by elution position against the WT. On the technique in general: In gel filtration, larger molecules generally elute earlier.
The stoichiometry N is the number of molecules, sites or subunits per partner or assembly. For the protein B1, the “stoichiometry N” value was 4.
Regarding B2, the “stoichiometry N” value came to 4.
On the same count and under the same terms, to B3 belongs 4; to B4, 4; to B5, 4.
Take B6: the “stoichiometry N” value worked out at 4.

A further series deals with the molecule itself. Briefly: SEC-MALS; multi-angle laser light scattering after Superdex 200 10/30 in buffer A (150 mM NaCl, 50 mM Tris/HCl, pH 7.4); DAWN EOS photometer, Optilab rEX refractor.
With B7, the “stoichiometry N” value was 2.
